According to paper PMC2777755:
Where two headings read alike, the source gives them in different places. Blank lines part the entries; values can stand above or below the substance they belong to.

Experiments:
[1] = target: Ste5 minimal scaffold domain (Ste5-ms), fluorescein-labeled (S. cerevisiae) (UniProt P32917); assay: fluorescence polarisation
[2] = target: Fus3 (Saccharomyces cerevisiae) (UniProt P16892); details: cited from earlier work
[3] = target: Fus3 (Saccharomyces cerevisiae) (UniProt P16892); details: cited from earlier work; remark: listed apart in the source
[4] = target: Kss1 (Saccharomyces cerevisiae) (UniProt P14681); details: cited from earlier work
UniProt P14681, sequence (P14681 whole entry): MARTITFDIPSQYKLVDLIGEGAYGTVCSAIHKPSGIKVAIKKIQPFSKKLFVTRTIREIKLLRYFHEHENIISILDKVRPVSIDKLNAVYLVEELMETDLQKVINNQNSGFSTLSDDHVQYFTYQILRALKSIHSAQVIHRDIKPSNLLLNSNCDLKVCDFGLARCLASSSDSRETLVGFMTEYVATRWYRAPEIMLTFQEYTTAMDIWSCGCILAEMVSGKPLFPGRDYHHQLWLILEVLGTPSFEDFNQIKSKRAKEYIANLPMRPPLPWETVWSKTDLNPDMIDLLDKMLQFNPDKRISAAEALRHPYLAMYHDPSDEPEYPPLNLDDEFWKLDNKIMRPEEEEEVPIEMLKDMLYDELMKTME

UniProt P16892, sequence (P16892 whole entry): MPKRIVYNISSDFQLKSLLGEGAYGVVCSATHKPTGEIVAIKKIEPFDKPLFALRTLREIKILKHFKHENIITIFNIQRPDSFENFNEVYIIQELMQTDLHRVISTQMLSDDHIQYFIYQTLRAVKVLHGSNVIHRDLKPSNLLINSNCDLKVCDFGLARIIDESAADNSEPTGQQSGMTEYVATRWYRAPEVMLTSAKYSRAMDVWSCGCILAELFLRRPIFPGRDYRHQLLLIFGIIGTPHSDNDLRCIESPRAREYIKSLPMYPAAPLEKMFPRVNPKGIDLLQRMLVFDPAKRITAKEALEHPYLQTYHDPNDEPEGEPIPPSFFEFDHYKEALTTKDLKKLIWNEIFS

Kd [1]: 75 nM
Substance: MAPKK Ste7 (from UniProt P06784 1-515) (enzyme)

Substance: Ste5 288-316 (from UniProt P32917)
Kd [2]: 1000 nM

Substance: Ste7 docking motif (from UniProt P06784)
Kd [3]: 100 nM | Kd [4]: 100 nM
